From the DeepSol protein solubility set

Assay: soluble on expression in E. coli; label from the status in PepcDB or PDB records

Sequence | soluble on expression in E. coli
SPSETLWEIAKAEVEKRRSHGSEGDGAEIGEKSVFFIGSKNGGKTTIILRCLDRDESAKPTLALEYTYGRKTKGHNTPKDIAHFWELGGGTSLLDLISIPITVDTLRTFSIVLVLDLSKPNDLWSTMENLLQATKSHVDKVIMKLGKTSSKASAEMRQRMWSVVQKDHPDRELIDPFPIPLVIIGSKYDIFQDFDPEKRKVICKTLRFVAHYYGASLMFTSKSEALLLKIRGVINQLAFGIDKSKSICVDQNKPLFITAGLDSLCQIGSPPVPDSDIGKLQAHSPMELWKKVYDKLFPPKSTGTLKAVQDPARDPQYAESEVDEMRVQKDQELEHYKRSSSKTWKQIELDS | soluble
MSEQYVYQHGTLGGLMESLMAGTAEIGTLLTQGDFGIGTLEGSNGEIILLDGTLYHANQTGEITILEGEELTPYAAVTRFQEDGAFPVSTETDENIKAQILEKISPNFFAAIKISGLFAKMHVRVAPKQEKPYPPFVEAARNQPEFTAENIQGTVVGFFTPKLFHGASAAGFHLHFISEDHQFGGHILDFGIKQGTVSWMETAELRQHFPVHDADYRNKEIDIAKALSAIEEAE | not soluble
MKIVAVTACPTGIAHTYMAADALMKAAPKHNVQIKVETQGAMGIENQLTPHDIAQADRVLIVSDIEIEQPGRFEGTRKIQIPIEEVLLNVDKVFLVHCRD | soluble
GAMAMSGGLPELGSKISLISKADIRYEGRLYTVDPQECTIALSSVRSFGTEDRDTQFQIAPQSQIYDYILFRGSDIKDIRVVNNHTLP | soluble
MDNLLAQKKPINILLLGTDTGAMGRSWKGRTDTIMMMAINPKTNSTSIVSIPRDSNAIFPDFPQYGVTKINSAYTLGGVGETVKTLDKYYSVPIDGYIMINMGGLKKAIDQVGGIDVTSPLTFDNMGYHFQEGKTYHMDGKKALAFAQLRHGDPRQDYGRQDRDRRVVMALLKKSISPTTLLNTKFLNSISSEMQTDLTMNQMYKIGMDYRHATDNLSQDHAQGVSKQTQNPKFGTMEIEVVSRQERQRVSDKLRAALGLPKVRVAANSASYVMNQLEHHHHHH | soluble
MGSDKIHHHHHHMCRWLAYTGNPLQLETVLFNARHSLIDQSLHSRLGYTTTNGDGFGIGWYGEPTDIPFRYRCIQPAWSDRNLREAARAIRAPLFVAHVRSATDTPSQETNCHPFRHGRWLFAHNGLIRNYPAVRRDLMVMIDPDLFPSIEGSTDSEVMFFLALTFGLELAPVTALERMVAFVEETGRKHGVDEPLNMTVCVTDGEQIVAVRYSSEGQSRSLFHSTSFHHLHELYPDDPRIAAAGENAFLVLSEPLADLPGWWEEIPESTVVVARGGQIEQYPFRPQSA | not soluble
MGSDKIHHHHHHMFYRPEDGHGLPHNPFNAVVTPRPIGWISTRSGAGVNNLAPYSFFNAVAYVPPQVMFASTSTKDDQDGTKDSIANIRETGVFCVNVVEYAMRDAMNKTSAALDKGIDEFAHAGLEAVPCETIDCARVAGVPAALECRLTQIVDLPGEANKVAFGEVVGVHLRDDCLVDGVFDVTRYQPLSRLGYRDYAKVSDPFSLSRPDD | not soluble
MSLPHALIVEDDPNSLSGLSAILAADGFSVDTATTIAEARAALTRFIPDVVLVDLNLPDGSGLDLLQHLPAHPPGGALPVIVMTGNATVESAIEGLRHGIWDYLLKPVNIPRLRSLLARIPRPYELTEEVQTLRASLRQLGRFGSMLGRSGAIQHVYDTIEHIAPTEAAVLISGETGTGKQIAARTMHDMSRRRKGPFITFDCRSANSAGVQRSLDSLLFGHERGAFNGAEQREPGLFEQASGGTLFIEEIAELPRAQQEALLRALDSQTFMRVGGTNQVVTDFRLIASTRKAPRAAVADGSLHEDLALRLEAAAVTLPPLRERGEDPALIAQAVVDELNHEGLTRGSAESAKQVAPNFLRECLAYEWPGNVRELQDRVRRAYHASGDVLESLRADEAGSEGHHHHHH | soluble
MGSDKIHHHHHHMILLNKPVAPNLQKLNSYLERVHDTGWYTNFGPLHNELTEKLEEYLGVSNLLLVSNGTLAIQLAAKVFNVKQTITTPFSFVATSSSLLWQGIDLAYSDIERSSLNICPEELEKNWKSNDSYDSLLATHVYGNPCDVQKIDEIAKKYNKKIMYDAAHAFGIKVGNKSVLSFGDASTLSFHATKVFHTVEGGAVIFKDRNHFDEAKSLINFGIQNDGTLGTPGINAKLNEYQAAVGLCLLESIDDIICHRSNLFEIYRKELSNVIELPLWHRDSNYNGAYMPILPSTEVERLKIGEQLKANNIQFRRYFYPSLDKAYLRVKSFNCPVSNYIAENALCLPLHMYMTKEDVLKITATIKEIY | not soluble
KNFPVLHLHREDFHDIRGTISLHLKTGFPMGFQMSVMCIGQLSMQTVVNSLGTAAVAGYTAASKADQLSVLVNNAMMTAISNYVAQNFGAGKRERIRQGVR | not soluble
